In patent publication US20070020718:

Molecular target: T1, F-P564 peptide
T1 chain: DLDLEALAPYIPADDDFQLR

B1: HIF-1alpha specific prolyl-4-hydroxylase-2 (PHD-2) (protein)
chain: MANDSGGPGGPSPSERDRQYCELCGKMENLLRCSRCRSSFYCCKEHQRQDWKKHKLVCQGSEGALGHGVGPHQHSGPAPPAAVPPPRAGAREPRKAAARRDNASGDAAKGKVKAKPPADPAAAASPCRAAAGGQGSAVAAEAEPGKEEPPARSSLFQEKANLYPPSNTPGDALSPGGGLRPNGQTKPLPALKLALEYIVPCMNKHGICVVDDFLGKETGQQIGDEVRALHDTGKFTDGQLVSQKSDSSKDIRGDKITWIEGKEPGCETIGLLMSSMDDLIRHCNGKLGSYKINGRTKAMVACYPGNGTGYVRHVDNPNGDGRCVTCIYYLNKDWDAKVSGGILRIFPEGKAQFADIEPKFDRLLFFWSDRRNPHEVQPAYATRYAITVWYFDADERARAKVKYLTGEKGVRVELNKPSDSVGKDVF
- prolyl hydroxylation of F-P564 peptide, mass analysis: the 564th proline group in F-P564 was hydroxylated by the addition of prolyl hydroxylase
